Ends that are not written are not given here. * marks the point of attachment. Biotin = O=C1N[C@H]2[C@H](CS[C@H]2CCCCC(=O)*)N1
T1: GST-PDZK1 fusion protein (PDZ domains 2-4) (Homo sapiens, UniProt Q5T2W1 134-457)
T1 construct: not shown: glutathione S-transferase encoded by vector pGEX-3X (Pharmacia)
T1 sequence: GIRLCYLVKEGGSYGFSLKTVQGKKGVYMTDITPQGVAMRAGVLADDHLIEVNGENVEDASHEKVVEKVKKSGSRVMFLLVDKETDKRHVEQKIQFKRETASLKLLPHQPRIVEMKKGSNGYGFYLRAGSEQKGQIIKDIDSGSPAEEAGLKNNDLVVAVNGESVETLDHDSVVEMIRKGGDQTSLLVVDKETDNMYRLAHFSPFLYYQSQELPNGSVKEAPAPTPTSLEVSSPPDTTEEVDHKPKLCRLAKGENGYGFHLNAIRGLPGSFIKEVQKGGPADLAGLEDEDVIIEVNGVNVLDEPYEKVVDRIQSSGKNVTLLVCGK

T2: GST-MPP1 PDZ domain fusion protein (Homo sapiens (Human), UniProt Q00013 67-152)
T2 construct: also called p55; 55 Kd erythrocyte membrane protein; not shown: glutathione S-transferase encoded by vector pGEX-3X (Pharmacia)
T2 sequence: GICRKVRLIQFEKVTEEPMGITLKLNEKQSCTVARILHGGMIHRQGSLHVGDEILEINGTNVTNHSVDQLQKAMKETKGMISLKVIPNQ

T3: ConEn PDZ-GST fusion protein (Homo sapiens (Human), UniProt Q969H4 193-287)
T3 construct: The label ConEn is not explained in the excerpts
T3 sequence: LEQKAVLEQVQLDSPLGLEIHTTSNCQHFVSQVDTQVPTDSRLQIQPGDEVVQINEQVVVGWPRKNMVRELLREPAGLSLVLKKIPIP

T4: GST-LIM protein PDZ domain fusion protein (Human, UniProt Q96HC4 2-85)
T4 construct: also called Human LIM protein; not shown: glutathione S-transferase encoded by vector pGEX-3X (Pharmacia)
T4 sequence: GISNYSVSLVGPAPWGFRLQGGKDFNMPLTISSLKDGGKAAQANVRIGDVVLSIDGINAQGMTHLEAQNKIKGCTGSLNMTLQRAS

T5: GST-prIL16 fusion protein (PDZ domains 1-2) (Homo sapiens (Human), UniProt Q14005 1111-1324)
T5 construct: also called putative interleukin 16 precursor; not shown: glutathione S-transferase encoded by vector pGEX-3X (Pharmacia)
T5 sequence: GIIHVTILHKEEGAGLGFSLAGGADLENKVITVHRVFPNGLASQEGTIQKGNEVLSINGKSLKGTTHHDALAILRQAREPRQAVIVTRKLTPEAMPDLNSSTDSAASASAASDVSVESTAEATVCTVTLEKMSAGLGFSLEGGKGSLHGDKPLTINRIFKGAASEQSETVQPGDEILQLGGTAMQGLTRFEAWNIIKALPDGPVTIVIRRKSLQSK

T6: K858 PDZ-GST fusion protein (Homo sapiens (Human), UniProt Q8WWI1 1038-1131)
T6 construct: Order of GST and PDZ part and limits not seen in the excerpts
T6 sequence: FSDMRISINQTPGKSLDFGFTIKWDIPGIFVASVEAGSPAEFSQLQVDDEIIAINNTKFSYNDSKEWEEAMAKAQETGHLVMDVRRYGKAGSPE

T7: GST-cytohesin binding protein PDZ domain fusion protein (Homo sapiens (Human), UniProt O60759 74-165)
T7 construct: also called CBP; not shown: glutathione S-transferase encoded by vector pGEX-3X (Pharmacia)
T7 sequence: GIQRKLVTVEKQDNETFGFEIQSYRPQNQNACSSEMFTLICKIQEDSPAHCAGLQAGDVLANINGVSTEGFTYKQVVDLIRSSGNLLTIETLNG

T8: GST-TAX-IP40 PDZ domain fusion protein (human, UniProt Q6B4M5 150-252 (rat entry))
T8 construct: also called TAX40; not shown: glutathione S-transferase encoded by vector pGEX-3X (Pharmacia)
T8 sequence: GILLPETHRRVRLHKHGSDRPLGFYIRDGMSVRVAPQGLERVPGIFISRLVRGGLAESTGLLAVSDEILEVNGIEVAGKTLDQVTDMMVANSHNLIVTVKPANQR

T9: X11β PDZ-GST fusion protein (Rattus norvegicus (Rat), UniProt O35431 560-745)
T9 construct: Order of GST and PDZ part and limits not seen in the excerpts
T9 chain: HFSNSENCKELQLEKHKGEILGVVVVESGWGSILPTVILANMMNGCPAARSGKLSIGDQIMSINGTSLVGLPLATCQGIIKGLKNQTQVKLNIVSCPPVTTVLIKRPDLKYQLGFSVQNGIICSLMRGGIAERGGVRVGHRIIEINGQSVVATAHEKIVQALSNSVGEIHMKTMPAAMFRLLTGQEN

T10: GST-AF6 PDZ domain fusion protein (Homo sapiens (Human), UniProt P55196 1001-1093)
T10 construct: also called af-6 protein; not shown: glutathione S-transferase encoded by vector pGEX-3X (Pharmacia)
T10 sequence: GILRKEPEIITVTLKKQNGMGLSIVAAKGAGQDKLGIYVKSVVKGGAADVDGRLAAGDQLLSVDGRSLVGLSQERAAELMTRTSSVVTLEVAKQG

T11: GST-RGS12 PDZ domain fusion protein (human, UniProt O14924 17-85)
T11 construct: also called human regulator of G-protein signalling 12; not shown: glutathione S-transferase encoded by vector pGEX-3X (Pharmacia)
T11 sequence: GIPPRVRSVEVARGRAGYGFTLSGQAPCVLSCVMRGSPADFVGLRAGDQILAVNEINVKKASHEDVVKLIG

T12: GST-TAX-IP2 PDZ domain fusion protein (human, UniProt O14908 129-216)
T12 construct: also called TAX-1P2; TAX2; not shown: glutathione S-transferase encoded by vector pGEX-3X (Pharmacia)
T12 chain: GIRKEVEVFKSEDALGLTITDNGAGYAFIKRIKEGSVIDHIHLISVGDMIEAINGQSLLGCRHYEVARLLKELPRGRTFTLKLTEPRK

B1: CC CKR-1R C-terminal peptide AA41L (peptide)
peptide: Biotin-LERVSSTSPSTGEHELSAGF
notes: Only the last four residues are seen in the excerpts
B2: CC CKR-2 C-terminal peptide AA42L (peptide)
peptide: Biotin-GKGKSIGRAPEASLQDKEGA
notes: as for B1
B3: CC CKR-4 C-terminal peptide AA44L (peptide)
peptide: Biotin-DTPSSSYTQSTMDHDLHDAL
notes: as for B1

molecular target: T1, GST-PDZK1 fusion protein (PDZ domains …); experiment: A/G assays

Binding result, no binding:
B1
B2
B3
Biotin-ARHRVTSYTSSSVNVSSNL [CDW128A (IL8RA) C-terminal peptide AA29.1L, biotinylated]

molecular target: T2, GST-MPP1 PDZ domain fusion protein; experiment: A/G assays

Binding result, no binding:
B1
B2
B3
Biotin-ARHRVTSYTSSSVNVSSNL [CDW128A (IL8RA) C-terminal peptide AA29.1L, biotinylated]

molecular target: T3, ConEn PDZ-GST fusion protein; experiment: A/G assays

Binding result, no binding:
B1
B2
B3
Biotin-ARHRVTSYTSSSVNVSSNL [CDW128A (IL8RA) C-terminal peptide AA29.1L, biotinylated]

molecular target: T4, GST-LIM protein PDZ domain fusion …; experiment: A/G assays

Binding result, no binding:
B1
B2
B3
Biotin-ARHRVTSYTSSSVNVSSNL [CDW128A (IL8RA) C-terminal peptide AA29.1L, biotinylated]

molecular target: T5, GST-prIL16 fusion protein (PDZ domains …); experiment: A/G assays

Binding result, no binding:
B1
B2
B3
Biotin-ARHRVTSYTSSSVNVSSNL [CDW128A (IL8RA) C-terminal peptide AA29.1L, biotinylated]

molecular target: T6, K858 PDZ-GST fusion protein; experiment: A/G assays

Binding result, no binding:
B1
B2
B3
Biotin-ARHRVTSYTSSSVNVSSNL [CDW128A (IL8RA) C-terminal peptide AA29.1L, biotinylated]

molecular target: T13, GST-TIAM1 PDZ domain fusion protein (Homo sapiens (Human), UniProt Q13009 845-931); experiment: A/G assays
T13 construct: also called TLAM1; T-lymphoma invasion and metastasis inducing protein 1; not shown: glutathione S-transferase encoded by vector pGEX-3X (Pharmacia)
T13 sequence (Q13009 other isoform, or with tags, fused parts or gaps): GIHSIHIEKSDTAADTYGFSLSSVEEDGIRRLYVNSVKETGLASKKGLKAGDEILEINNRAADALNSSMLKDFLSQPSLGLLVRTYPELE

Binding result, no binding:
B1
B2
B3
Biotin-ARHRVTSYTSSSVNVSSNL [CDW128A (IL8RA) C-terminal peptide AA29.1L, biotinylated]

molecular target: T7, GST-cytohesin binding protein PDZ …; experiment: A/G assays

Binding result, no binding:
B1
B2
B3
Biotin-ARHRVTSYTSSSVNVSSNL [CDW128A (IL8RA) C-terminal peptide AA29.1L, biotinylated]

molecular target: T8, GST-TAX-IP40 PDZ domain fusion protein; experiment: A/G assays

Binding result, no binding:
B1
B2
B3
Biotin-ARHRVTSYTSSSVNVSSNL [CDW128A (IL8RA) C-terminal peptide AA29.1L, biotinylated]

Molecular target: T9, X11β PDZ-GST fusion protein
Experiment: A/G assays

Binding result, no binding:
B1
B2
B3
Biotin-ARHRVTSYTSSSVNVSSNL [CDW128A (IL8RA) C-terminal peptide AA29.1L, biotinylated]

molecular target: T10, GST-AF6 PDZ domain fusion protein; experiment: A/G assays

Binding result, no binding:
B1
B2
B3
Biotin-ARHRVTSYTSSSVNVSSNL [CDW128A (IL8RA) C-terminal peptide AA29.1L, biotinylated]

molecular target: T11, GST-RGS12 PDZ domain fusion protein; experiment: A/G assays

Binding result, no binding:
B1
B2
B3
Biotin-ARHRVTSYTSSSVNVSSNL [CDW128A (IL8RA) C-terminal peptide AA29.1L, biotinylated]

Molecular target: T12, GST-TAX-IP2 PDZ domain fusion protein
Experiment: A/G assays

Binding result, no binding:
B1
B2
B3
Biotin-ARHRVTSYTSSSVNVSSNL [CDW128A (IL8RA) C-terminal peptide AA29.1L, biotinylated]

molecular target: T14, NSP PDZ-GST fusion protein (Homo sapiens (Human), UniProt Q92743 370-466); experiment: A/G assays
T14 construct: The label NSP is not explained in the excerpts
T14 sequence (Q92743 other isoform, or with tags, fused parts or gaps limits assumed): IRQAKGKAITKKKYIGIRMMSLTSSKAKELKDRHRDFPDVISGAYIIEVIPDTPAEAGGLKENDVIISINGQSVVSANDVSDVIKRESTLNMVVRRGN

Binding result, no binding:
B1
B2
B3
Biotin-ARHRVTSYTSSSVNVSSNL [CDW128A (IL8RA) C-terminal peptide AA29.1L, biotinylated]

— patent US20050037969A1 (ARBOR VITA, published 2005)
